Test results taken from publication PMC11931385, “Structural and functional analysis of cancer-associated missense variants in the retinoblastoma protein pocket domain” (The Journal of Biological Chemistry, 2025).
Where a chain is given by its changes, count along the chain named. Numbers in names are those of the source. No end group written: not given here. TMR = tetramethyl rhodamine dye

T1: Rb^P S751Y (human, UniProt P06400 380-788, S751Y)
T1 construct: also called variant 72
T1 sequence (looked up): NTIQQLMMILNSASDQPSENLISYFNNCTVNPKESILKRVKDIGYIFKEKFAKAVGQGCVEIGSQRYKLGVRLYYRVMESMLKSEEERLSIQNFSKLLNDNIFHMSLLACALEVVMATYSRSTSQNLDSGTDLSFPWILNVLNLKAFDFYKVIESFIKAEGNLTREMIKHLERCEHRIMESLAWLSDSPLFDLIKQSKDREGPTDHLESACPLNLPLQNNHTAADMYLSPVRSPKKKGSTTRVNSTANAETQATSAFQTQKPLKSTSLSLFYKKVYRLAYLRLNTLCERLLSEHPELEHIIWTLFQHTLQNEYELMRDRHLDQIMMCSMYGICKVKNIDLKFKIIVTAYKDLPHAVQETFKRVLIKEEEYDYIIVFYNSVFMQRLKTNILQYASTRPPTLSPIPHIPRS

T2: Rb^P M704V (human, UniProt P06400 380-788, M704V)
T2 construct: also called variant 66
T2 sequence (looked up): T1 sequence (looked up) with M325V, Y372S

B1: TMR-E2F1^TD, peptide of the E2F1 transactivation domain (peptide)
peptide: {TMR}-GEGIRDLFDCDFGDLTPLD
notes: also called E2F^TD; source: synthetic peptide, bought: GenScript
B2: TMR-E7^LxCxE, LxCxE peptide of the E7 oncoprotein from HPV (peptide)
peptide: DLYCYEQLN
modifications: also: TMR label, position not given here
notes: source: synthetic peptide, bought: GenScript

How the values were obtained:
Rb^P S751Y = molecular target: T1, Rb^P S751Y; assay: fluorescence polarisation; 25 °C after warming to 37 °C (7 min ramp, 2 min at 37 °C), 1 min on ice and 3 min at 25 °C; unlabeled Rb^P against 1.5 nM TMR-E2F1^TD or 7.5 nM TMR-E7^LxCxE; 25 mM Tris pH 8.0, 200 mM NaCl, 1 mM DTT, 0.1% Tween-20; apparent Kd; conditions: both partners purified
Rb^P M704V = molecular target: T2, Rb^P M704V; assay: as above; conditions: both partners purified

Binder	Kd (Rb^P S751Y) [nM]	Kd (Rb^P M704V) [nM]
B1	28	46
B2	119	14
